According to IntAct's records for PubMed 23622242:

B1: Double-stranded RNA-specific adenosine deaminase (Homo sapiens), P55265-1 (parent)
chain: MNPRQGYSLSGYYTHPFQGYEHRQLRYQQPGPGSSPSSFLLKQIEFLKGQLPEAPVIGKQTPSLPPSLPGLRPRFPVLLASSTRGRQVDIRGVPRGVHLRSQGLQRGFQHPSPRGRSLPQRGVDCLSSHFQELSIYQDQEQRILKFLEELGEGKATTAHDLSGKLGTPKKEINRVLYSLAKKGKLQKEAGTPPLWKIAVSTQAWNQHSGVVRPDGHSQGAPNSDPSLEPEDRNSTSVSEDLLEPFIAVSAQAWNQHSGVVRPDSHSQGSPNSDPGLEPEDSNSTSALEDPLEFLDMAEIKEKICDYLFNVSDSSALNLAKNIGLTKARDINAVLIDMERQGDVYRQGTTPPIWHLTDKKRERMQIKRNTNSVPETAPAAIPETKRNAEFLTCNIPTSNASNNMVTTEKVENGQEPVIKLENRQEARPEPARLKPPVHYNGPSKAGYVDFENGQWATDDIPDDLNSIRAAPGEFRAIMEMPSFYSHGLPRCSPYKKLTECQLKNPISGLLEYAQFASQTCEFNMIEQSGPPHEPRFKFQVVINGREFPPAEAGSKKVAKQDAAMKAMTILLEEAKAKDSGKSEESSHYSTEKESEKTAESQTPTPSATSFFSGKSPVTTLLECMHKLGNSCEFRLLSKEGPAHEPKFQYCVAVGAQTFPSVSAPSKKVAKQMAAEEAMKALHGEATNSMASDNQPEGMISESLDNLESMMPNKVRKIGELVRYLNTNPVGGLLEYARSHGFAAEFKLVDQSGPPHEPKFVYQAKVGGRWFPAVCAHSKKQGKQEAADAALRVLIGENEKAERMGFTEVTPVTGASLRRTMLLLSRSPEAQPKTLPLTGSTFHDQIAMLSHRCFNTLTNSFQPSLLGRKILAAIIMKKDSEDMGVVVSLGTGNRCVKGDSLSLKGETVNDCHAEIISRRGFIRFLYSELMKYNSQTAKDSIFEPAKGGEKLQIKKTVSFHLYISTAPCGDGALFDKSCSDRAMESTESRHYPVFENPKQGKLRTKVENGEGTIPVESSDIVPTWDGIRLGERLRTMSCSDKILRWNVLGLQGALLTHFLQPIYLKSVTLGYLFSQGHLTRAICCRVTRDGSAFEDGLRHPFIVNHPKVGRVSIYDSKRQSGKTKETSVNWCLADGYDLEILDGTRGTVDGPRNELSRVSKKNIFLLFKKLCSFRYRRDLLRLSYGEAKKAARDYETAKNYFKKGLKDMGYGNWISKPQEEKNFYLCPV
partner: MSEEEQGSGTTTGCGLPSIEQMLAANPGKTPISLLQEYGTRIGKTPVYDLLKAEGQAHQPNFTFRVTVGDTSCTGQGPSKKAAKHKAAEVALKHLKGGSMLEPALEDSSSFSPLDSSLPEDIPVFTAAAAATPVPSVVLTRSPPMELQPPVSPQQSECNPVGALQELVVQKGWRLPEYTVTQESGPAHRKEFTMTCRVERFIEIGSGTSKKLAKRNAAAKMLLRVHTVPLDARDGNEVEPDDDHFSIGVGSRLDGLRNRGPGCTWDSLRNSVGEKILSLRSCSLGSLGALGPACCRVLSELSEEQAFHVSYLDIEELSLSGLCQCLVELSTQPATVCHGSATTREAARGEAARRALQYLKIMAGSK

Variants of: B1
Conditions: with trbp2_human TARBP2, Q15633

| Variant | effect of a mutation on the interaction |
| --- | --- |
| K554E;K555A;K558A;K665E;K666A;K669A;K777E;K778A;K781A | disrupting interaction strength |
